According to IntAct's records for PubMed 23039992:

B1: Tumor necrosis factor receptor superfamily member 11B (Mus musculus), O08712 (parent)
chain: MNKWLCCALLVLLDIIEWTTQETLPPKYLHYDPETGHQLLCDKCAPGTYLKQHCTVRRKTLCVPCPDHSYTDSWHTSDECVYCSPVCKELQSVKQECNRTHNRVCECEEGRYLEIEFCLKHRSCPPGSGVVQAGTPERNTVCKKCPDGFFSGETSSKAPCIKHTNCSTFGLLLIQKGNATHDNVCSGNREATQKCGIDVTLCEEAFFRFAVPTKIIPNWLSVLVDSLPGTKVNAESVERIKRRHSSQEQTFQLLKLWKHQNRDQEMVKKIIQDIDLCESSVQRHLGHSNLTTEQLLALMESLPGKKISPEEIERTRKTCKSSEQLLKLLSLWRIKNGDQDTLKGLMYALKHLKTSHFPKTVTHSLRKTMRFLHSFTMYRLYQKLFLEMIGNQVQSVKISCL

Variants of: B1
Conditions: with Tnfsf11, O35235-1
Chain of Tnfsf11, O35235-1 (O35235 whole entry): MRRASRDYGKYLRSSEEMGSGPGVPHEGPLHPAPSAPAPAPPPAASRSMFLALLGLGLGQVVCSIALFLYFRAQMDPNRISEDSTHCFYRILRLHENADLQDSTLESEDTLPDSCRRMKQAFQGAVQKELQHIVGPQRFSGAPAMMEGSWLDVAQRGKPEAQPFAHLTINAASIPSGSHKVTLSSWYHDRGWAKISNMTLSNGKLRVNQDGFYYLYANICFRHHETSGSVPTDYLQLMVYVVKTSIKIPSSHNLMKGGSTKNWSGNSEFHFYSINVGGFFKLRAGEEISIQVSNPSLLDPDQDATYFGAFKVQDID

| effect of a mutation on the interaction | Variant |
| --- | --- |
| increasing interaction strength | MNKWLCCALLVLLDIIEWTTQETLPPKYLHYDPETGHQLLCDKCAPGTYLKQHCTVRRKTLCVPCPDHSYTDSWHTSDECVYCSPVCKELQSVKQECNRTHNRVCECEEGRYLEIEACLKHRSCPPGSGVVQAGTPERNTVCKKCPDGFFSGETSSKAPCIKHTNCSTFGLLLIQKGNATHDNVCSGNREATQKCGIDVTLCEEAFFRFAVPTKIIPNWLSVLVDSLPGTKVNAESVERIKRRHSSQEQTFQLLKLWKHQNRDQEMVKKIIQDIDLCESSVQRHLGHSNLTTEQLLALMESLPGKKISPEEIERTRKTCKSSEQLLKLLSLWRIKNGDQDTLKGLMYALKHLKTSHFPKTVTHSLRKTMRFLHSFTMYRLYQKLFLEMIGNQVQSVKISCL [F117A] |

Variants of: B1
Conditions: with Tnfsf11, O35235-1
Remark: another data set of the same source

| effect of a mutation on the interaction | Variant |
| --- | --- |
| increasing interaction strength | MNKWLCCALLVLLDIIEWTTQETLPPKYLHYDPETGHQLLCDKCAPGTYLKQHCTVRRKTLCVPCPDHSYTDSWHTSDECVYCSPVCKELQSVKQECNRTHNRVCECEEGRYLEIELCLKHRSCPPGSGVVQAGTPERNTVCKKCPDGFFSGETSSKAPCIKHTNCSTFGLLLIQKGNATHDNVCSGNREATQKCGIDVTLCEEAFFRFAVPTKIIPNWLSVLVDSLPGTKVNAESVERIKRRHSSQEQTFQLLKLWKHQNRDQEMVKKIIQDIDLCESSVQRHLGHSNLTTEQLLALMESLPGKKISPEEIERTRKTCKSSEQLLKLLSLWRIKNGDQDTLKGLMYALKHLKTSHFPKTVTHSLRKTMRFLHSFTMYRLYQKLFLEMIGNQVQSVKISCL [F117L] |
